Reference: publication PMC7210950 (2020)
Square brackets hold non-standard residues; d marks the D form. Ends that are not written are not given here. pY = N[C@@H](Cc1ccc(OP(=O)(O)O)cc1)C(=O)O

Experiments:
Experiment in all cases: FP
[1] = molecular target: Btk SH2 domain R372G (XLA mutation) (human, UniProt Q06187 271-383, R372G)
[2] = molecular target: Btk SH2 domain S371P (XLA mutation) (human, UniProt Q06187 271-383, S371P)
[3] = molecular target: Btk SH2 domain K296E (XLA mutation) (human, UniProt Q06187 271-383, K296E)
Btk SH2 domain K296E (XLA mutation), sequence (Q06187 271-383 K296E): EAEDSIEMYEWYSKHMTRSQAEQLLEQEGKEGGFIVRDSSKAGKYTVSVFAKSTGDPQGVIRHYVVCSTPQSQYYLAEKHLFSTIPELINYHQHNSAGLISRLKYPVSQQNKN

[4] = molecular target: Btk SH2 domain H364D (XLA mutation) (human, UniProt Q06187 271-383, H364D)
Btk SH2 domain H364D (XLA mutation), sequence (Q06187 271-383 H364D): as the sequence (Q06187 271-383 K296E) above, with E26K, H94D counted along it

[5] = molecular target: Btk SH2 domain, wild-type (recombinant) (human, UniProt Q06187 271-383)
Btk SH2 domain, wild-type (recombinant), sequence (Q06187 271-383): as the sequence (Q06187 271-383 K296E) above, with E26K counted along it

[6] = molecular target: Btk SH2 domain K374N (XLA mutation) (human, UniProt Q06187 271-383, K374N)
Btk SH2 domain K374N (XLA mutation), sequence (Q06187 271-383 K374N): as the sequence (Q06187 271-383 K296E) above, with E26K, K104N counted along it

Btk SH2 domain S371P (XLA mutation), sequence (Q06187 271-383 S371P): as the sequence (Q06187 271-383 K296E) above, with E26K, S101P counted along it
Btk SH2 domain R372G (XLA mutation), sequence (Q06187 271-383 R372G): as the sequence (Q06187 271-383 K296E) above, with E26K, R102G counted along it

ADND[pY]IIPLPD (also: FITC label, end not given here) [FITC-labeled pY-peptide (ADNDpYIIPLPD)]
Kd [1]: 5.8 µM | Kd [2]: 5.7 µM | Kd [3]: 21.8 µM | Kd [4]: 6.9 µM | Kd [5]: 7.1 µM | Kd [6]: 8.7 µM
